# B1: Fab22 (Fab, V domains shown)
# VH: EVQLQQPGPVLVKPGASVRMSCKASGYRITDNFMNWVKQSHGKSLEWIGIINPYNGGTKYNQKFKGKATLTVDTSSSTAYMELNSLTSEDSAVYYCTRVRGNDYHGRAMDYWGQGTSVTVSS
# VL: DVVLTQTPLSLPVNIGDQASISCKSTKSLLNRDGFTFLDWYLQKPGQSPQLLIYLVSNRFSGVPDRFSGSGSGTDFTLKISRVEAEDLGVYYCFQSNYLFTFGSGTKLEIK
# Molecular target: SARS-CoV-2 S-HexaPro protein (SARS-CoV-2, Wuhan-Hu-1 type, stabilised)
# Test: SPR
binder,measurement,value
B1,Kd,6.7 nM

# From article PMC8519809 (Cell Reports, 2021)
